Patent US20160207963A1 (GlaxoSmithKline, published 2016)

B1: 1A2 Fab (Fab, V domains shown)
VH: EVQLQQSGPELVKPGASVKMSCKASGYTFTSFIMYWVKQKPGQGLEWLGYIDPYNDGTKYNEKFEGKATLTSDKSSSTAYMELSSLTSEDSAVYYCAKRGNYGNGFAYWGQGTLVTVSA
VL: DIVMTQSQKFVSTSVGDRVSVTCKASQNVGSNVAWYQHKPGHSPTALIYSASHRYSGVPDRFTGSESGTDFTLTISNVQSEDLAEYFCQQYYSYPYTFGGGTKLEIKR
B2: mouse IgG 1A2 (antibody, V domains shown)
VH: B1 VH
VL: B1 VL

Experiments:
[1] = molecular target: purified, his-tag depleted, recombinant Viet04 HA trimers (influenza A virus A/Vietnam/1203/04 …, UniProt Q6J8F6 17-531); test: complex formation, size exclusion gel filtration (Superdex 200)
Vietnam Wt (HA1) = Vietnam Wt (HA1) (influenza A virus A/Vietnam/1203/04 …, UniProt Q6J8F6 17-346); test: biolayer interferometry (ForteBio), HA1 on biosensors probed with IgG 10 µg/ml

Row | Binder | binding result [1] | binding result (Vietnam Wt (HA1))
1 | B1 | binds | 
2 | B2 |  | binds
